Results: article PMC11984883, “ACAT1‐Mediated ME2 Acetylation Drives Chemoresistance in Ovarian Cancer by Linking Glutaminolysis to Lactate Production” (Advanced Science, 2025)

Key:
ME2 (malic enzyme 2) = target: T1, ME2 (malic enzyme 2) (Homo sapiens, UniProt P23368); experiment: […]-pyruvate binding to Flag-bead-bound ME2, scintillation counting
T1 construct: for the malate assay purified from overexpressing 293T cells treated with cisplatin

[1] = target: T2, ME2-flag recombinant protein (WT) (UniProt P23368 19-584); experiment: pull-down; ME2-flag recombinant protein bound to Flag beads, incubated with recombinant ACAT1 or SIRT4 with or without pyruvate (increasing concentrations) for 20 min at room temperature, unbound protein washed out, western blot; conditions: both partners purified
T2 construct: malic enzyme 2 (ME2), wild type; If it was made in mammalian cells, the mitochondrial transit peptide is probably removed (surmise); also called purified ME2-flag protein; ME2-flag WT; not shown: Flag, C-terminal, kept
T2 sequence (P23368 19-584): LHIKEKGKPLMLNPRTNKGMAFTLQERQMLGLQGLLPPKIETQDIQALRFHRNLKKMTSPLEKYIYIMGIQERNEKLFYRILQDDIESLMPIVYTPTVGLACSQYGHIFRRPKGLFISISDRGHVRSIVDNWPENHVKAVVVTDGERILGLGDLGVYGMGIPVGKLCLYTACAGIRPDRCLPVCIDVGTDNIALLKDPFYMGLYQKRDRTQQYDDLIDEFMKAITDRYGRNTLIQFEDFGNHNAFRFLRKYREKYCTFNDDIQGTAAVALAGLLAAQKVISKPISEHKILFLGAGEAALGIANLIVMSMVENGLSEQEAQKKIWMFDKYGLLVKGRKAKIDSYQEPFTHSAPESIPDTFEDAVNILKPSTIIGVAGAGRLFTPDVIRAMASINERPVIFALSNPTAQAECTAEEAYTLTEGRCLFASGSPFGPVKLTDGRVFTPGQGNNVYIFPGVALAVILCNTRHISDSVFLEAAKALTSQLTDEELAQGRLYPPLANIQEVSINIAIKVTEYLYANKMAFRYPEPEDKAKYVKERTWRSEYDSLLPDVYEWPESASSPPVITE

[2] = target: T3, ME2-flag R511A recombinant protein (UniProt P23368 19-584, R511A); experiment: as above; conditions: both partners purified
T3 construct: Same construct as m7, with the mutation; also called ME2 R511A; source: recombinant, purified; not shown: Flag, C-terminal, kept
T3 sequence (P23368 19-584 R511A): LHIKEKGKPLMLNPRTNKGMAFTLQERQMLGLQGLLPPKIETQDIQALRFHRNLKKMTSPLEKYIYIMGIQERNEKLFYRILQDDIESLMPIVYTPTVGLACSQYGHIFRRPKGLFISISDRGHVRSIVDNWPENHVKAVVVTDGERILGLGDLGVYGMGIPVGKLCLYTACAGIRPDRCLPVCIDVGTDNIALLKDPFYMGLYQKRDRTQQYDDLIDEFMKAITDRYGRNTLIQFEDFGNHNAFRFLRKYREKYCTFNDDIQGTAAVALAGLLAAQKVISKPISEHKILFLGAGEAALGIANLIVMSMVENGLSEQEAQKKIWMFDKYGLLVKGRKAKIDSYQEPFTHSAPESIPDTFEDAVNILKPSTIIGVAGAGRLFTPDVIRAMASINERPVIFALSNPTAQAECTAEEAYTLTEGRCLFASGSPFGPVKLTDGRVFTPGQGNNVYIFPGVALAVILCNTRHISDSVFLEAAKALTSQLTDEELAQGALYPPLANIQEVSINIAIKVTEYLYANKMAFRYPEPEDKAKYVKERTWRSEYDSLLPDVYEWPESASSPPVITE

T1 sequence (P23368 19-584): as the sequence (P23368 19-584) above

Kd (ME2 (malic enzyme 2)) | binding result [1] | binding result [2] | Molecule
~6.17 µM |  |  | CC(=O)C(=O)O [pyruvate]
 | binds | binds | recombinant SIRT4 (enzyme, UniProt Q9Y6E7 29-314, looked up, SIRT4, recombinant protein; also called purified, recombinant SIRT4; source: recombinant, purified) IGLFVPASPPLDPEKVKELQRFITLSKRLLVMTGAGISTESGIPDYRSEKVGLYARTDRRPIQHGDFVRSAPIRQRYWARNFVGWPQFSSHQPNPAHWALSTWEKLGKLYWLVTQNVDALHTKAGSRRLTELHGCMDRVLCLDCGEQTPRGVLQERFQVLNPTWSAEAHGLAPDGDVFLSEEQVRSFQVPTCVQCGGHLKPDVVFFGDTVNPDKVDFVHKRVKEADSLLVVGSSLQVYSGYRFILTAWEKKLPIAILNIGPTRSDDLACLKLNSRCGELLPLIDPC
 | binds | binds | recombinant ACAT1 (enzyme, UniProt P24752 34-427, looked up, acetyl-CoA acetyltransferase 1 (ACAT1), recombinant protein; also called purified, recombinant ACAT1; source: recombinant, purified) VSKPTLKEVVIVSATRTPIGSFLGSLSLLPATKLGSIAIQGAIEKAGIPKEEVKEAYMGNVLQGGEGQAPTRQAVLGAGLPISTPCTTINKVCASGMKAIMMASQSLMCGHQDVMVAGGMESMSNVPYVMNRGSTPYGGVKLEDLIVKDGLTDVYNKIHMGSCAENTAKKLNIARNEQDAYAINSYTRSKAAWEAGKFGNEVIPVTVTVKGQPDVVVKEDEEYKRVDFSKVPKLKTVFQKENGTVTAANASTLNDGAAALVLMTADAAKRLNVTPLARIVAFADAAVEPIDFPIAPVYAASMVLKDVGLKKEDIAMWEVNEAFSLVVLANIKMLEIDPQKVNINGGAVSLGHPIGMSGARIVGHLTHALKQGEYGLASICNGGGGASAMLIQKL
